Measured values published in patent US20250043302A1, “MUTATED HYDROXYPHENYLPYRUVATE DIOXYGENASE POLYPEPTIDE, AND CODING GENE AND USE THEREOF” (BEIJING DABEINONG BIOTECHNOLOGY CO., LTD., priority 2021, published 2025).
Changes are numbered by the printed parent chain. Numbers in names are those of the source.

B1: GmHPPDm-F372A-F383W-02: nucleotide sequence encoding Glycine max HPPD with F372A+F383W; vector DBN11749 (nucleic acid)
DNA: ATGCCAATGTACACACCATCGCTCTCCGCCCCTTCTTCCAACCATATTCAGCCATCCGTGACTCTGCCTCTCTACATCACAACCACCAAGTTGAACCTGAAGCAGCAGCACCATACGACTCCTATGCCTATACCCATGTGCAATGAGATCCAAGCACAGGCTCAGGCACAAGCTCAACCCGGATTCAAACTCGTGGGATTCAAGAACTTCGTCCGTACCAATCCAAAATCTGACCGCTTCCAGGTGAACAGATTCCACCACATAGAGTTTTGGTGTACTGATGCAACGAATGCTTCGAGGAGGTTTTCATGGGGCTTAGGCATGCCGATTGTAGCAAAGTCAGACCTTTCTACAGGGAACCAAATTCATGCAAGCTATCTGCTCCGCTCAGGTGATTTGTCTTTCTTGTTCTCAGCTCCATATTCTCCATCATTATCTGCTGGGTCATCAGCAGCATCTAGTGCGTCGATCCCTAGCTTTGATGCCGCCACCTGCCTCGCCTTCGCCGCCAAACATGGATTTGGTGTTCGCGCCATTGCTCTTGAGGTTGCCGATGCCGAGGCTGCTTTTAGCGCCTCCGTCGCCAAGGGAGCTGAGCCTGCGTCACCTCCTGTTCTTGTTGATGATCGAACTGGTTTTGCTGAAGTGCGTCTTTACGGCGACGTGGTGCTCAGATATGTTAGTTACAAGGATGCTGCTCCTCAAGCGCCGCACGCTGATCCTTCAAGATGGTTTCTTCCGGGGTTTGAGGCCGCTGCTAGTTCATCTTCCTTCCCGGAGTTGGATTACGGCATACGGCGGCTTGACCATGCTGTCGGCAATGTTCCTGAGCTTGCTCCGGCGGTACGGTACTTGAAAGGTTTCTCCGGGTTCCATGAATTTGCAGAGTTCACGGCGGAAGATGTTGGAACAAGTGAAAGCGGATTGAATTCTGTTGTTTTGGCCAACAACAGTGAAACTGTTCTGCTCCCCCTCAATGAACCAGTTTATGGCACAAAGCGCAAGAGCCAGATTGAAACATATCTCGAGCACAATGAAGGCGCCGGCGTCCAGCATCTTGCTTTGGTGACTCATGATATCTTCACAACACTTAGGGAGATGAGGAAGAGGAGTTTCCTCGGCGGGTTTGAATTCATGCCCAGTCCCCCGCCGACCTACTATGCAAATCTGCACAACAGGGCTGCAGATGTGCTGACTGTAGACCAGATCAAGCAATGTGAAGAACTTGGAATTTTAGTGGATAGAGACGACCAAGGTACACTACTTCAAATAGCCACCAAACCAGTCGGTGACAGACCAACAATTTGGATCGAGATTATACAAAGAATTGGATGCATGGTCGAGGATGAAGAAGGGAAGGTGTACCAGAAGGGAGCATGTGGTGGTTTTGGGAAAGGAAATTTTTCTGAGCTGTTTAAATCCATCGAGGAATATGAGAAAACCTTAGAAGCTAAAAGAACTGCATGA
modifications: GmHPPDm-F372A-F383W-02 Nucleotide Sequence
notes: vector DBN11749
B2: GmHPPDm-F372A-02: nucleotide sequence encoding Glycine max HPPD with F372A; vector DBN11747 (nucleic acid)
DNA: B1 DNA with G1307T, G1308C
modifications: GmHPPDm-F372A-02 Nucleotide Sequence
notes: vector DBN11747

Assays:
Assay type in all cases: in vivo
[1] = test system: Arabidopsis thaliana T1 plants; assay: Topramezone tolerance of transgenic Arabidopsis thaliana T1 plants (spray, bleached leaf area grade, damage score); settings: 7 DAT, Table 4; for Classification and statistics of the grade of pesticide damage: Grade 0 / Classification and statistics of the grade of pesticide damage: Grade 1 / Classification and statistics of the grade of pesticide damage: Grade 2 / Classification and statistics of the grade of pesticide damage: Grade 3: number of plants; for Scores: pesticide damage score 0-100
Procedure, shortened: (§1)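 Damage was assessed by bleaching grade (0 none; 1 <50%; 2 >50%; 3 100% of leaf area) one week after spraying. Sprays on 18-day-old T1 and wild-type plants used field-rate multiples: topramezone 25–200, isoxaflutole 35–280, mesotrione 52.5–420 g ai/ha.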

[2] = test system: Arabidopsis thaliana T1 plants; assay: Isoxaflutole tolerance of transgenic Arabidopsis thaliana T1 plants (spray, bleached leaf area grade, damage score); design: Scores (pesticide damage): scale not given here; settings: spray, Arabidopsis thaliana T1 plants; for Classification and statistics of the grade of pesticide damage: Grade 0 (number of plants) / Classification and statistics of the grade of pesticide damage: Grade 1 (number of plants) / Classification and statistics of the grade of pesticide damage: Grade 2 (number of plants) / Classification and statistics of the grade of pesticide damage: Grade 3 (number of plants): 16 plants
Procedure, shortened: as §1

[3] = test system: Arabidopsis thaliana T1 plants; assay: Mesotrione tolerance of transgenic Arabidopsis thaliana T1 plants (spray, bleached leaf area grade, damage score); design: Scores: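 damage score 0-100 computed as Σ(N×S)/(T×M)×100 over grades 0-3 with higher meaning more damage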; settings: Arabidopsis thaliana T1 plants; for Grade 0 (classification and statistics of the grade of pesticide damage; number of plants) / Grade 1 (classification and statistics of the grade of pesticide damage; number of plants) / Grade 2 (classification and statistics of the grade of pesticide damage; number of plants) / Grade 3 (classification and statistics of the grade of pesticide damage; number of plants): 16 plants
Procedure, shortened: as §1

[4] = isoxaflutole 35 g ai/ha (0.5x field concentration)
[5] = isoxaflutole 70 g ai/ha (1x field concentration)

Molecule | Classification and statistics of the grade of pesticide damage: Grade 0 ([1]; topramezone 25 g ai/ha (1×)) | Classification and statistics of the grade of pesticide damage: Grade 1 ([1]; topramezone 25 g ai/ha (1×)) | Classification and statistics of the grade of pesticide damage: Grade 2 ([1]; topramezone 25 g ai/ha (1×)) | Classification and statistics of the grade of pesticide damage: Grade 3 ([1]; topramezone 25 g ai/ha (1×)) | Classification and statistics of the grade of pesticide damage: Grade 0 ([1]; topramezone 100 g ai/ha (4×)) | Classification and statistics of the grade of pesticide damage: Grade 1 ([1]; topramezone 100 g ai/ha (4×)) | Classification and statistics of the grade of pesticide damage: Grade 2 ([1]; topramezone 100 g ai/ha (4×)) | Classification and statistics of the grade of pesticide damage: Grade 3 ([1]; topramezone 100 g ai/ha (4×)) | Scores ([1]; topramezone 25 g ai/ha (1×)) | Scores ([1]; topramezone 100 g ai/ha (4×)) | Resistance evaluation ([1]; topramezone 25 g ai/ha (1×)) | Resistance evaluation ([1]; topramezone 100 g ai/ha (4×)) | Resistance evaluation [2, 4] | Scores (pesticide damage) [2, 4] | Classification and statistics of the grade of pesticide damage: Grade 0 (number of plants) [2, 4] | Classification and statistics of the grade of pesticide damage: Grade 1 (number of plants) [2, 4] | Classification and statistics of the grade of pesticide damage: Grade 2 (number of plants) [2, 4] | Classification and statistics of the grade of pesticide damage: Grade 3 (number of plants) [2, 4] | Resistance evaluation [2, 5] | Scores (pesticide damage) [2, 5] | also measured
B1 | 9 | 7 | 0 | 0 | 5 | 6 | 4 | 1 | 15 | 35 | highly | poorly | Highly | 15 | 9 | 7 | 0 | 0 | Poorly | 40 | Classification and statistics of the grade of pesticide damage: Grade 0 (number of plants) [2, 5]: 4; Classification and statistics of the grade of pesticide damage: Grade 1 (number of plants) [2, 5]: 6; Classification and statistics of the grade of pesticide damage: Grade 2 (number of plants) [2, 5]: 5; Classification and statistics of the grade of pesticide damage: Grade 3 (number of plants) [2, 5]: 1; Resistance evaluation ([3]; mesotrione 52.5 g ai/ha): Moderately; Scores ([3]; mesotrione 52.5 g ai/ha): 23; Grade 0 (classification and statistics of the grade of pesticide damage; number of plants) ([3]; mesotrione 52.5 g ai/ha): 6; Grade 1 (classification and statistics of the grade of pesticide damage; number of plants) ([3]; mesotrione 52.5 g ai/ha): 9; Grade 2 (classification and statistics of the grade of pesticide damage; number of plants) ([3]; mesotrione 52.5 g ai/ha): 1; Grade 3 (classification and statistics of the grade of pesticide damage; number of plants) ([3]; mesotrione 52.5 g ai/ha): 0; Resistance evaluation ([3]; mesotrione 105 g ai/ha): Poorly resistant; Scores ([3]; mesotrione 105 g ai/ha): 46; Grade 0 (classification and statistics of the grade of pesticide damage; number of plants) ([3]; mesotrione 105 g ai/ha): 2; Grade 1 (classification and statistics of the grade of pesticide damage; number of plants) ([3]; mesotrione 105 g ai/ha): 7; Grade 2 (classification and statistics of the grade of pesticide damage; number of plants) ([3]; mesotrione 105 g ai/ha): 6; Grade 3 (classification and statistics of the grade of pesticide damage; number of plants) ([3]; mesotrione 105 g ai/ha): 1
B2 | 0 | 12 | 4 | 0 | 0 | 0 | 0 | 16 | 42 | 100 | poorly | non-resistant (non-resistant plants (scores 68-100)) | Poorly | 65 | 0 | 3 | 11 | 2 | Non-resistant | 100 | Classification and statistics of the grade of pesticide damage: Grade 0 (number of plants) [2, 5]: 0; Classification and statistics of the grade of pesticide damage: Grade 1 (number of plants) [2, 5]: 0; Classification and statistics of the grade of pesticide damage: Grade 2 (number of plants) [2, 5]: 0; Classification and statistics of the grade of pesticide damage: Grade 3 (number of plants) [2, 5]: 16; Resistance evaluation ([3]; mesotrione 52.5 g ai/ha): Poorly resistant; Scores ([3]; mesotrione 52.5 g ai/ha): 67; Grade 0 (classification and statistics of the grade of pesticide damage; number of plants) ([3]; mesotrione 52.5 g ai/ha): 0; Grade 1 (classification and statistics of the grade of pesticide damage; number of plants) ([3]; mesotrione 52.5 g ai/ha): 2; Grade 2 (classification and statistics of the grade of pesticide damage; number of plants) ([3]; mesotrione 52.5 g ai/ha): 12; Grade 3 (classification and statistics of the grade of pesticide damage; number of plants) ([3]; mesotrione 52.5 g ai/ha): 2; Resistance evaluation ([3]; mesotrione 105 g ai/ha): Non-resistant; Scores ([3]; mesotrione 105 g ai/ha): 100; Grade 0 (classification and statistics of the grade of pesticide damage; number of plants) ([3]; mesotrione 105 g ai/ha): 0; Grade 1 (classification and statistics of the grade of pesticide damage; number of plants) ([3]; mesotrione 105 g ai/ha): 0; Grade 2 (classification and statistics of the grade of pesticide damage; number of plants) ([3]; mesotrione 105 g ai/ha): 0; Grade 3 (classification and statistics of the grade of pesticide damage; number of plants) ([3]; mesotrione 105 g ai/ha): 16
